This test deals with histidine-tagged HIV-1 integrase protein (IN) (HIV-1) (UniProt P04585). The test can be described thus: cell-based or functional assay.

“And” between values parts separate entries of the source, which are not always exact repeats. Equal entries are not always repeated.

As for “Rev 13-23 peptide (Rev-derived peptide, as used in the IN activity assay) (from UniProt P04618 13-23)”, the inhibition of IN enzymatic activity is 60 % inhibition and 70 % inhibition. The result for “Rev 53-67 peptide (Rev-derived peptide, as used in the IN activity assay) (from UniProt P04618 53-67)” reads 60 % inhibition and 70 % inhibition.
